Assay: soluble on expression in E. coli; label from the status in PepcDB or PDB records

**Q.** With “MYQVIRMYGAMEPWWFLDDWKEDITKVLEFDNYHEALQCYQKEWAKLRRRYSDFNSHGDIMTAFWNKQDQHWCEECGDYVQRYHSLALLTDWQETPSSWFRPTFTKQLEHHHHHH” as the sequence, how does the “soluble on expression in E. coli” value read?
**A.** soluble

**Q.** Which “soluble on expression in E. coli” value does the source give for “MKQSTIALALLPLLFTPVTKAREVQLQQSGPELVKPGASVKMSCKASGYTFTSYVMHWVKQKPGQGLEWIGYINPYNDGTKYNEKFKGKATLTSDKSSSTAYMELSSLTSEDSAVYYCARGAYKRGYAMDYWGQGTSVTVSSRGGGGSGGGGSGGGGSDLVMSQSPSSLAVSAGEKVTMSCKSSQSLFNSRTRKNYLAWYQQKPGQSPKLLIYWASTRESGVPDRFTGSGSGTDFTLTISSVQAEDLAVYYCKQSYYHMYTFGSGTKLEIKHHHHHGLVPRGSGDPKADNK” here?
**A.** soluble

**Q.** For “MGSDKIHHHHHHMDYLDKLTHLAQVRGEINIRCEFQGEWQISHQEKDAGKGIFHLIEQGECWLTLNEKQFHLKEGDVFFLPQNQPHSMHYSANKRADIPTKKSHQGLFELHQIGRGTPDLKMFCGNFYYQQDALLTASMPEYLHINLCDTPIHPLVQLFLQEAQKNDAGTKSVVDALSNVLLIYILRHAIQQNLIEQGILFALQDKRLNTALIAILQQPQNDWHIEQLAELATMSRANFIRIFQQHIGMSPGRFLTKVRLQSAAFLLKQSQQSVLAIALEVGYQSEAHFCKVFKNYYQLSPSQYRKSVSL”, which “soluble on expression in E. coli” value is on record?
**A.** not soluble

**Q.** For “MGSDKIHHHHHHMKLRLRKPMRSAGNMSSLVDFYNDFITRHGFEERKGIEETLRYLENGHNVILKAPTGYGKTTLTMILANAVSSNIDIGSRVIHVLPYRAIVQDLYLKLKKYADKGIIYTKSIGAQDMDYHDSPFFMKKVNVTTLDTFILNLFKLPTIDFKLIFKNYGSHYEFPRALIYSSIVIFDEFHLLGEDGKSLGAGLSAIEVLSDAGVPIVVTSATIDKGLERVLMDKLGKSGKVVYASDFKIDRKIYVNELEKDEISIADEKVKEGKRVLLVYNTRMGAIEAYWKLKERGLSPILIHSKFSKKDRIDKVNKINDAKLVVSTQVIEAGIDTSFDVLITEACPSHNLIQRAGRVARYGKGGKGKLEGEVYIFPFSGKVYNEGEVKETMKRVRKLKTIDESLLIERDYTKEIDSILARDLSVIDNSVFVDYKKVKSLYENICSITRETSIILGFPPNSDNVDDAIPLTEEEAIKIIKSKGSSAFVGNSNIKLYAGKCLQLEMIKNDILGVRIQDYNSEIGGVY”, which “soluble on expression in E. coli” value is on record?
**A.** not soluble

**Q.** For “MDPVRILRHLITGQSAIKRAFPPATLTVIEQAIAHSETLHGGEIVFAVEASLDLPLLLQNQIIRERAIDVFSLLRVWDTEHNNGVLIYLLMADHDVEIVADRGIHTKVDQTIWETACDTMKTTFRHGQFEQGVLAGIDLSTRVLQQFFPASTGKRKSELPDRPVVLLEHHHHHH”, which “soluble on expression in E. coli” value is on record?
**A.** not soluble

**Q.** Which “soluble on expression in E. coli” value does the source give for “MAHHHHHHMAHAVGFACPHMADPSMVRNVIGVRGRALSVVVDSTNAAMAARKHYDCDDIYGMELQDQNGDGSTLESHWSQRHAKDELMAPIGGAGDHTELTLAAFAELGCMRVNWKLAEPMGWGKKSGCELLQSKRSAPNMSEYSHIFCNRDEVVERCASDRYSRGFCRRSIIEFSKQHSMDSCPIIDPAMDVRDLEAVFEKEEYLSARPGDKPSSWCLDTLPTNTTDARYPEETYLSAATQAELKCLGMQVHLKNPEKRNVRWLPCTEEETITWDTPPYNKENVICPKYAEVCTISATGGSVIPVVSWDGEARVWSRTVPPASTGQGLPGASVPVAESIDPGRGTHTKDVVTAIPERNLLLQGPWRLSVLLLLLE” here?
**A.** soluble

**Q.** With “MTDALEQSVLALEGTVSVLKDSVESLKCANEPSTNLASTMLQTKRVFRLVPEYDVERSKLDLIEEVEPLVRTLGDKLRKSMGRMQRELDTLQQTYELNDLRLKKNISMDDDDALNSPDMGQEYEGRDADDVVMMASSTNEELEELKKLKEKKKQLENKLEILKQK” as the sequence, how does the “soluble on expression in E. coli” value read?
**A.** soluble

**Q.** For “MALEPIDYTTHSREIDAEYLKIVRGSDPDTTWLIISPNAKKEYEPESTGSSFHDFLQLFDETKVQYGLARVSPPGSDVEKIIIIGWCPDSAPLKTRASFAANFAAVANNLFKGYHVQVTARDEDDLDENELLMKISNAAGA”, which “soluble on expression in E. coli” value is on record?
**A.** soluble

**Q.** Which “soluble on expression in E. coli” value does the source give for “MAHHHHHHMFNHDIIKEKDNYKQKIRTLYRNEKEAIKPCNHYDMKEEEKKKSGKIKRSIKLFGTPAVHGLSSHINNNSGTQLYYNFHNVLKRDKEKIQDDNLNYTLERDAGEDNTMQSIHESDKTETQECGKHYLYNKFDIYKSYLSYKKDLIRNEYDQDYKGITTSLLKGKDTHDDNKDNKDNDDNDDNDDNNDHNDHYDITRDDPCDDMCDDMCEDMCDDMCDDMCDDPCDDMCDDPCDDMCDDPCDDMCDDPCDDPYDHPYEEEKYSTYCDKGYLRNFLKNAIIRPNLQTFVGRKIISFLNEKERDIFSLTCKILFFEVYSVSNLKTLYKYQFISNEKRSFIWKAILLEDNTYISEEDYKELRNRKCLYDKAIEKDINRTFPKHPFFINKNMNMQDKLLDILKVCSLYFERIGYCQGMNYIAGILLLVFRKNIDTIRCFISMLKNYNIKGMFSYNFPQLKKIIYQLNLLIKAYIPKLFYYFKRKKIKIDFFCVNWFLTLFSQDLSFENTLKLWDLFFLFGMKILIKLTLILLYYHEDNIIHLSYDEALTYLKAITKTPFIDYLFQDDHFFTHLKKFKITNSMLTQIIMLKKSRQKINLLVKENNGKLRCSIQIKQNNKHTFTSKIKEGFRNLFKLNENYVDYINYFYQKGDGEENNGNQNNGEEYNGKEYNGNQNNGNQNNGKQNNGNQNNGKQNNGNQNNVKQNNGEDTNKNNNNDDINNNICHNNYSSTNFYKNFFQHFNCGNIFNNPNYSNEIVLTNTTCLSVHFNSNVLCNSQNIKNKNTIHSLENIKEEHDHTKNPSNFFLETNTYYDLNLTKSVDGNN” here?
**A.** soluble

**Q.** For “MGSDKIHHHHHHMTKRDPSTLIRIARENGAEAEAEPLDLGARVRELRKARDWTLEQAASQAGLARSTLSKIENGQMSPTYDALKKLAVGLQISVPQLFTPPQKGQVNGRMTVTKSGSGSGHATATYEHELLADSLTKKQMLPYRARVRARAMEEFDGWVRHDGEEFLYVLTGVIRLYTEFYEPIEMRRGDSAYYDASMGHNVVSVSDEDATILWVTSLV”, which “soluble on expression in E. coli” value is on record?
**A.** not soluble

**Q.** Which “soluble on expression in E. coli” value does the source give for “MVEATAQETDRPRFSFSIAAREGKARTGTIEMKRGVIRTPAFMPVGTAATVKALKPETVRATGADIILGNTYHLMLRPGAERIAKLGGLHSFMGWDRPILTDSGGFQVMSLSSLTKQSEEGVTFKSHLDGSRHMLSPERSIEIQHLLGSDIVMAFDECTPYPATPSRAASSMERSMRWAKRSRDAFDSRKEQAENAALFGIQQGSVFENLRQQSADALAEIGFDGYAVGGLAGGEGQDEMFRVLDFSVPMLPDDKPHYLMGVGKPDDIVGAVERGIDMFDCVLPTRSGRNGQAFTWDGPINIRNARFSEDLKPLDSECHCAVCQKWSRAYIHHLIRAGEILGAMLMTEHNIAFYQQLMQKIRDSISEGRFSQFAQDFRARYFARNS” here?
**A.** soluble

**Q.** With “GMSLAPWRGAIAHALHRNRSLVYARYLQLATVQPNGRPANRTLVFRGFLEDTNQLRFITDTRSAKADQIQQQPWAEICWYFPNTREQFRMAGDLTLISSDDSHQDLQPARIAMWQELSDAARLQFGWPYPGKPRIKESGAFEPSPPDPIEPVPNFCLLLLDPVQVDHLELRGEPQNRWLYHRNDQQEWSSEAINP” as the sequence, how does the “soluble on expression in E. coli” value read?
**A.** soluble

**Q.** For “MGSDKIHHHHHHMLLREPDPMNVKEKQMQHTDDTRDIAGVQKPEAPSGRRALITGASSGLGIEFAELLAAQKMNLVLAARRKEPMEKLAEDLRRRHGVDILVEPIDLAAPGAAARLKDSLNERAIQIDILVNNAGYGLQGEFLKTPIERTTDMIQLNITALTELSYVFGRDMAARGSGEILLIASLLAFQPVPTYAAYAATKSYVLSFGEALHDELRTQGVVVTSLCPGHTETGFDAAAGAQVSPMLRLLTMKPRPVAEAGLEALAKGKASVIAGFMNKVVAFSTRLTPRSMQRASMRKVMVP”, which “soluble on expression in E. coli” value is on record?
**A.** not soluble

**Q.** Which “soluble on expression in E. coli” value does the source give for “MSWINRIFSKSPSSSTRKANVPEGVWTKCTACEQVLYSEELKRNLYVCPKCGHHMRIDARERLLNLLDEDSSQEIAADLEPKDILKFKDLKKYKDRINAAQKETGEKDALITMTGTLYNMPIVVAASNFAFMGGSMGSVVGAKFVKAAEKAMEMNCPFVCFSASGGARMQEALFSLMQMAKTSAVLAQMREKGVPFISVLTDPTLGGVSASFAMLGDLNIAEPKALIGFAGPRVIEQTVREKLPEGFQRSEFLLEKGAIDMIVKRSEMRQTLASVLSKLTNQPSPFVEPELISEDE” here?
**A.** not soluble

**Q.** Which “soluble on expression in E. coli” value does the source give for “ISAVIVGTAEDIYSRVLALMCQRKGAVSICLQHGALMGDEAFIPVFTTYQAVFGAYEAEWFIRKGCKPEQILVTGHPRFDQIFNRTPMDMSIFYRKLAFQPTKKIVLIATQPFSEDFYSGVLQGLSDQKQLQIIIKPHPWEIGKNKLDLYHEAAKKHQACRVIKKELELYDLLPYVDAAVTQTSTVGLEAMLFQKPVLIGKSSGNRSYPYYESLGDFMFDQPDELAHTLVEVLRSP” here?
**A.** not soluble

**Q.** Which “soluble on expression in E. coli” value does the source give for “MGSDKIHHHHHHMEGEYRALNDISLESNVLFFGKESCLPNYFYPGNNVRKNYVIHYILKGKGTFSSANHPSIELKAGDIFILPKGIPCFYKADGKEPWTYLWIGFSGLKIKNILSRSLLLSQRYLHQVQNSHFTDSLLKLFDALHNPDTSTNNDLLIESLIYQTFYYLNSEYPAQNKTNIKSSIRLKTATKYLYDNFTDNNCSIYLLCNKLGVSRSYLYNIFKEGMNLSPQQFLIKLRMEEAKNKLKNSQNSIQEISTSVGYTDTFTFSKAFKKYSGFSPKNYRQIKSSEN” here?
**A.** not soluble

**Q.** Which “soluble on expression in E. coli” value does the source give for “MAISNILPRKIMKNRTRQQSMAERHDYDQKEEKTDGGELVSSYMCSPETAAEEFEISKKLYAQLTGRSQSEKHDIIMYRIIQSFKPDEVSPEEAHKIGCELAMKFTGGQHQFVVATHTDKRHIHTHIEFNSTNLNCDAKFQNVKNSAFILRRMNDELCRAHGLSVIENPKKKARPQKEMAAAQYGVSHKKQLQQAIDRLLPECNHYEEFLAKMRAEGYEVVDGKNPGFRLPGWDRPTRVNRLGDDYTKTALRARITSQRRRLTSGKTAPKRTGRKVNLLIDIQAKLAAGKGAGYERWAKIFNLKEAAKTLNFLIENNLTDYDELALRAEQAENGFNAVSQKIKQLEARMAGIAQLKTHIIQYSKTREVYAAYKKSRHKKEFLAEHGAEIAQHEAAKKAFDALNGKAIPKVAQLSAEYAALLEEKREQYEQYKTLRQDMITYQTALRNMDKILGLEPPEQAQEKEQTKPER” here?
**A.** not soluble

**Q.** With “KRKEMISARLGDGLSYLYMASATLKKYEDEGRQQGDLNFVHYAVQYCLYNAAKSLNEAYANFPVKYVGGVLKGLLFPLGNHFDKPSDELSVSIAEAMMTPGVQRDRLTHLCYIGKSENDSVGLMENAFLAMYDVKPLERKLMKAAKDGKVARKGLLPDRLQQALDAGVLTEQEVEKITAADQLRYKAIQVDHFSHDFSEVRTDSPKKSHLNPAA” as the sequence, how does the “soluble on expression in E. coli” value read?
**A.** not soluble

**Q.** Which “soluble on expression in E. coli” value does the source give for “EAVIATDEMNVRSGPGLSYGITAEVKKGERYPILKEDGDWVQIQLGSGEKGWVVSWLITKEDQASTSSSGSSDTVTSTDPDLRMRSGPGTSYEVIGKFPQGSQASVIDKDSGWIKISYHSATGWVSSEYVTSGGSSSASDESDQTEDSGASTTGTVGVSSLNVRASASHDAAIITKLDRGTKLTVLNEKNGWAHIEVNGLKGWVASHYLLTSSVPADDSANAGSSSSAKKAYIMYGGTNLRSDASTSASIVERAAKGDSYTITGSKGSWYEIKLDNGQTAYVANWVVQTSKSAEEAGEPPVSDSPSGNGSLNNKTIIVDPGHGGKDSGTIGYSGKFEKNLTIKTAKLLASKLRSAGADVYVTRQDDTFVSLQSRVSTSHYRNADAFISIHYDSYADTSTRGSTAYYYSPAKDQELASDVHSEVVKRSSIPDRGVLFGDYYVLRENRQPAMLYELGYVSHPQEEAIVHSNSYQEKVTDGIESGLEKYF” here?
**A.** not soluble

**Q.** For “MYSIKMRSSNQDVHISGAETICEFDKIEQTVQRFYNKGFFHENGQPDFLNIKIQKIMEPIQQIKALQIIEDDKANLQHLTQECGVTEQALNQGMTYIKNETVYTGAIILSAISGKRLDSFGQRGIRATHFSFEDINNKGDLNERVTDALAIASCINAHPYVKGELCVSDDLTYTTGYFAAAKIGYHRLFDIKPVNTRYGGRIIFVDDCIDLNHYISFLESTPKQVVYETV”, which “soluble on expression in E. coli” value is on record?
**A.** not soluble
